Test results from patent US20090028872A1 (Bristol-Myers Squibb, published 2009).

T1: human CD70 expressed on the cell surface (human, UniProt P32970 1-193)
T1 sequence (looked up): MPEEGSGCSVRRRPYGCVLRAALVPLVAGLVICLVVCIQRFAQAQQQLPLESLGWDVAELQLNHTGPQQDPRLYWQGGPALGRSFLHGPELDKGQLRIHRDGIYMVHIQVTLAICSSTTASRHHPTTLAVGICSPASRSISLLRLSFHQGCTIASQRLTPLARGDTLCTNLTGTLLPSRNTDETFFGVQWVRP


Legend:
[1] = target: T1, human CD70 expressed on the cell surface; assay: cell-based or functional assay
[2] = target: T1, human CD70 expressed on the cell surface; assay: flow cytometry titration on A498 cells, PE anti-human IgG
Method: Binding of the anti-CD70 human monoclonal antibodies was assessed by incubating 5×10⁵ cells with antibody at a starting concentration of 50 μg/ml and serially diluting the antibody at a 1:3 dilution. The cells were washed and binding was detected with a PE-labeled anti-human IgG Ab. Flow cytometric analyses were performed using a FACSCalibur flow cytometry (Becton Dickinson, San Jose, Calif.).

[3] = target: human CD16 on effector cells (human, UniProt P08637 17-254); assay: cell-based or functional assay
Sequence of human CD16 on effector cells (P08637 17-254): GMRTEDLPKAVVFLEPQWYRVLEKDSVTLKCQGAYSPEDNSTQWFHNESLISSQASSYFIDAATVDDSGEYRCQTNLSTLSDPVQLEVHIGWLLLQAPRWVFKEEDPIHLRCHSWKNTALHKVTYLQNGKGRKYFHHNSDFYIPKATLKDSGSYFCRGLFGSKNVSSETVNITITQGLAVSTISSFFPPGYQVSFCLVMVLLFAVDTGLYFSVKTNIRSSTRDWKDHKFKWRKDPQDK

Row | Binder | EC50 of decrease in ^3H-thymidine incorporation, Hum-Zap internalization assay, 786-O cells [1] [nM] | EC50 (read off the curve) [2] [nM] | amount of anti-CD16 3G8 needed to reverse inhibition, 2H5NF against 2H5 [3] [fold]
1 | anti-CD70 human monoclonal antibody 2H5 (antibody, V domains shown, Fully human IgG with kappa light chain, from a hybridoma; human IgG1 isotype controls were used; also called HuMAb 2H5) VH: QVQLVESGGGVVQPGRSLRLSCAASGFTFSSYIMHWVRQAPGKGLEWVAVISYDGRNKYYADSVKGRFTISRDNSKNTLYLQMNSLRAEDTAVYYCARDTDGYDFDYWGQGTLVTVSS VL: EIVLTQSPATLSLSPGERATLSCRASQSVSSYLAWYQQKPGQAPRLLIYDASNRATGIPARFSGSGSGTDFTLTISSLEPEDFAVYYCQQRTNWPLTFGGGTKVEIK | 0.942 | ~7 | –
2 | non-fucosylated anti-CD70 human monoclonal antibody 2H5 (antibody, V domains shown, antibody lacking in fucosyl residues (expressed in FUT8-deficient CHO cell line Ms704-PF)) VH: QVQLVESGGGVVQPGRSLRLSCAASGFTFSSYIMHWVRQAPGKGLEWVAVISYDGRNKYYADSVKGRFTISRDNSKNTLYLQMNSLRAEDTAVYYCARDTDGYDFDYWGQGTLVTVSS VL: EIVLTQSPATLSLSPGERATLSCRASQSVSSYLAWYQQKPGQAPRLLIYDASNRATGIPARFSGSGSGTDFTLTISSLEPEDFAVYYCQQRTNWPLTFGGGTKVEIK | – | – | ~1000
